To fix the notation:
B1: Dystrobrevin alpha, residues 235 to 294; numbered along this chain, Q9Y4J8 (parent)
chain: ENVFHPVECSYCHSESMMGFRYRCQQCHNYQLCQDCFWRGHAGGSHSNQHQMKEYTSWKS

± gives the uncertainty stated by the source.

The data set covers variants of B1. As to the kind of experiment: abundance fitness (aPCA) (normalised: wild type 0, dead -1); higher = more abundant; growth selection in yeast, the domain comes from the species named. Conditions: Homo sapiens.
For the variant ELVFHPVECSYCHSESMMGFRYRCQQCHNYQLCQDCFWRGHAGGSHSNQHQMKEYTSWKS [N2L], the abundance fitness is -0.158 ± 0.11.

Turning to EKVFHPVECSYCHSESMMGFRYRCQQCHNYQLCQDCFWRGHAGGSHSNQHQMKEYTSWKS [N2K], the abundance fitness is -0.007 ± 0.06.

In the case of EHVFHPVECSYCHSESMMGFRYRCQQCHNYQLCQDCFWRGHAGGSHSNQHQMKEYTSWKS [N2H], the abundance fitness was -0.394 ± 0.1.

For the variant EWVFHPVECSYCHSESMMGFRYRCQQCHNYQLCQDCFWRGHAGGSHSNQHQMKEYTSWKS [N2W], the abundance fitness was -0.285 ± 0.08.

Take EYVFHPVECSYCHSESMMGFRYRCQQCHNYQLCQDCFWRGHAGGSHSNQHQMKEYTSWKS [N2Y]: the abundance fitness was -0.035 ± 0.088.

With EEVFHPVECSYCHSESMMGFRYRCQQCHNYQLCQDCFWRGHAGGSHSNQHQMKEYTSWKS [N2E], the abundance fitness is 0.032 ± 0.1.

As to EDVFHPVECSYCHSESMMGFRYRCQQCHNYQLCQDCFWRGHAGGSHSNQHQMKEYTSWKS [N2D], the abundance fitness is -0.599 ± 0.15.

Turning to EFVFHPVECSYCHSESMMGFRYRCQQCHNYQLCQDCFWRGHAGGSHSNQHQMKEYTSWKS [N2F], the abundance fitness is -0.121 ± 0.077.

As to EQVFHPVECSYCHSESMMGFRYRCQQCHNYQLCQDCFWRGHAGGSHSNQHQMKEYTSWKS [N2Q], the abundance fitness is 0.019 ± 0.11.

Regarding EAVFHPVECSYCHSESMMGFRYRCQQCHNYQLCQDCFWRGHAGGSHSNQHQMKEYTSWKS [N2A], the abundance fitness turned out to be 0.066 ± 0.064.

With ERVFHPVECSYCHSESMMGFRYRCQQCHNYQLCQDCFWRGHAGGSHSNQHQMKEYTSWKS [N2R], the abundance fitness was -0.109 ± 0.062.

As for EVVFHPVECSYCHSESMMGFRYRCQQCHNYQLCQDCFWRGHAGGSHSNQHQMKEYTSWKS [N2V], the abundance fitness is -0.129 ± 0.089.

On to EPVFHPVECSYCHSESMMGFRYRCQQCHNYQLCQDCFWRGHAGGSHSNQHQMKEYTSWKS [N2P], for which the abundance fitness was -0.09 ± 0.085.

In the case of EMVFHPVECSYCHSESMMGFRYRCQQCHNYQLCQDCFWRGHAGGSHSNQHQMKEYTSWKS [N2M], the abundance fitness stood at 0.092 ± 0.081.

As for ECVFHPVECSYCHSESMMGFRYRCQQCHNYQLCQDCFWRGHAGGSHSNQHQMKEYTSWKS [N2C], the abundance fitness is -0.33 ± 0.18.

As for ETVFHPVECSYCHSESMMGFRYRCQQCHNYQLCQDCFWRGHAGGSHSNQHQMKEYTSWKS [N2T], the abundance fitness was determined as 0.049 ± 0.068.

Regarding ENCFHPVECSYCHSESMMGFRYRCQQCHNYQLCQDCFWRGHAGGSHSNQHQMKEYTSWKS [V3C], the abundance fitness came to 0.118 ± 0.075.

With ENLFHPVECSYCHSESMMGFRYRCQQCHNYQLCQDCFWRGHAGGSHSNQHQMKEYTSWKS [V3L], the abundance fitness was found to be 0.096 ± 0.058.

On to ENNFHPVECSYCHSESMMGFRYRCQQCHNYQLCQDCFWRGHAGGSHSNQHQMKEYTSWKS [V3N], for which the abundance fitness was 0.149 ± 0.1.

On to ENQFHPVECSYCHSESMMGFRYRCQQCHNYQLCQDCFWRGHAGGSHSNQHQMKEYTSWKS [V3Q], for which the abundance fitness amounted to 0.106 ± 0.075.

ENEFHPVECSYCHSESMMGFRYRCQQCHNYQLCQDCFWRGHAGGSHSNQHQMKEYTSWKS [V3E]: the abundance fitness was 0.053 ± 0.083.

As for ENGFHPVECSYCHSESMMGFRYRCQQCHNYQLCQDCFWRGHAGGSHSNQHQMKEYTSWKS [V3G], the abundance fitness is -0.217 ± 0.06.

ENAFHPVECSYCHSESMMGFRYRCQQCHNYQLCQDCFWRGHAGGSHSNQHQMKEYTSWKS [V3A]: the abundance fitness is -0.075 ± 0.075.

Take ENKFHPVECSYCHSESMMGFRYRCQQCHNYQLCQDCFWRGHAGGSHSNQHQMKEYTSWKS [V3K]: the abundance fitness was 0.213 ± 0.066.

As for ENSFHPVECSYCHSESMMGFRYRCQQCHNYQLCQDCFWRGHAGGSHSNQHQMKEYTSWKS [V3S], the abundance fitness amounted to 0.134 ± 0.065.

Turning to ENDFHPVECSYCHSESMMGFRYRCQQCHNYQLCQDCFWRGHAGGSHSNQHQMKEYTSWKS [V3D], the abundance fitness was determined as 0.011 ± 0.11.

Take ENWFHPVECSYCHSESMMGFRYRCQQCHNYQLCQDCFWRGHAGGSHSNQHQMKEYTSWKS [V3W]: the abundance fitness was -0.34 ± 0.07.

As to ENMFHPVECSYCHSESMMGFRYRCQQCHNYQLCQDCFWRGHAGGSHSNQHQMKEYTSWKS [V3M], the abundance fitness amounted to 0.067 ± 0.057.

ENPFHPVECSYCHSESMMGFRYRCQQCHNYQLCQDCFWRGHAGGSHSNQHQMKEYTSWKS [V3P]: the abundance fitness was 0.083 ± 0.052.

With ENFFHPVECSYCHSESMMGFRYRCQQCHNYQLCQDCFWRGHAGGSHSNQHQMKEYTSWKS [V3F], the abundance fitness was -0.248 ± 0.21.

Turning to ENRFHPVECSYCHSESMMGFRYRCQQCHNYQLCQDCFWRGHAGGSHSNQHQMKEYTSWKS [V3R], the abundance fitness worked out at 0.011 ± 0.046.

Consider ENIFHPVECSYCHSESMMGFRYRCQQCHNYQLCQDCFWRGHAGGSHSNQHQMKEYTSWKS [V3I], for which the abundance fitness was -0.006 ± 0.08.

ENYFHPVECSYCHSESMMGFRYRCQQCHNYQLCQDCFWRGHAGGSHSNQHQMKEYTSWKS [V3Y]: the abundance fitness was found to be 0.018 ± 0.14.

As for ENVLHPVECSYCHSESMMGFRYRCQQCHNYQLCQDCFWRGHAGGSHSNQHQMKEYTSWKS [F4L], the abundance fitness is -0.039 ± 0.059.

With ENVQHPVECSYCHSESMMGFRYRCQQCHNYQLCQDCFWRGHAGGSHSNQHQMKEYTSWKS [F4Q], the abundance fitness was -0.152 ± 0.084.

Regarding ENVYHPVECSYCHSESMMGFRYRCQQCHNYQLCQDCFWRGHAGGSHSNQHQMKEYTSWKS [F4Y], the abundance fitness amounted to 0.084 ± 0.085.

For ENVIHPVECSYCHSESMMGFRYRCQQCHNYQLCQDCFWRGHAGGSHSNQHQMKEYTSWKS [F4I], the abundance fitness is 0.19 ± 0.12.

As for ENVNHPVECSYCHSESMMGFRYRCQQCHNYQLCQDCFWRGHAGGSHSNQHQMKEYTSWKS [F4N], the abundance fitness was determined as 0.037 ± 0.08.

As to ENVWHPVECSYCHSESMMGFRYRCQQCHNYQLCQDCFWRGHAGGSHSNQHQMKEYTSWKS [F4W], the abundance fitness was -0.224 ± 0.075.

In the case of ENVSHPVECSYCHSESMMGFRYRCQQCHNYQLCQDCFWRGHAGGSHSNQHQMKEYTSWKS [F4S], the abundance fitness was -0.14 ± 0.071.

Regarding ENVCHPVECSYCHSESMMGFRYRCQQCHNYQLCQDCFWRGHAGGSHSNQHQMKEYTSWKS [F4C], the abundance fitness was found to be 0.009 ± 0.082.

Turning to ENVPHPVECSYCHSESMMGFRYRCQQCHNYQLCQDCFWRGHAGGSHSNQHQMKEYTSWKS [F4P], the abundance fitness was -0.107 ± 0.068.

Take ENVDHPVECSYCHSESMMGFRYRCQQCHNYQLCQDCFWRGHAGGSHSNQHQMKEYTSWKS [F4D]: the abundance fitness worked out at 0.108 ± 0.11.

The values are drawn from the Human Domainome abundance scans (Beltran et al. 2025).
